Measured values taken from patent publication US10508147B2, “Anti-nodal antibodies and methods of using same” (ANN AND ROBERT H. LURIE CHILDREN'S HOSPITAL OF CHICAGO, priority 2014, dated 2019).
Values joined by “and” are separate entries in the source; they are usually repeats but may differ in a detail not shown here. Equal entries are not always repeated. “Also recorded” adds a separate entry of the source.

Tests used:
C8161 cells = assay: C8161 orthotopic (subcutaneous) xenograft in Nude mice, intratumoral treatment; format: in vivo
Method: (§1) Experiments were carried out to determine the in vivo effects of 3D1 mAb on primary melanoma. To this end, 500,000 C8161 cells were injected subcutaneously in Nude mice. Palpable tumors were then injected directly with either 700 μg of total 3D1 mAb or IgG control antibody (alternate day intratumoral injection of 100 μg over 14 days). Mice were then sacrificed and subcutaneous tumors harvested and processed as previously described. To evaluate the effect of 3D1 mAb in the presence of the BRAF(V600E) mutation, a third orthotopic xenograft model was established in Nude mice via subcutaneous injection of approximately 150,000 A375SM human metastatic melanoma cells. Mice were treated IP with 3D1 mAb or IgG control, as described above, or 3 mg/kg of dabrafenib.
Four micron thick, formalin fixed, paraffin embedded tissue sections were prepared and immunohistochemistry was carried out on a Dako Plus autostainer (DAKO, Inc, Carpenteria, Calif.). […] Similar to the lung tumor burden evaluation described above, mean percentage of positive staining±SEM was determined by 2 different observers, each calculating the ratio of positive cells/total number of cells×100 for 4 separate high power fields (63× objective) from at least 2 different mice per group.

rhNodal = biological target: T1, rhNodal (Homo sapiens, UniProt Q96S42); assay: SPR direct binding of mAbs and 3D1 fragments to rhNodal immobilized on a CM5 sensor chip
T1 construct: E. coli derived His238 Leu347, with an N-terminal Met; purchased R&D System 3218ND; host or cells: E. coli
T1 sequence (Q96S42 238-347): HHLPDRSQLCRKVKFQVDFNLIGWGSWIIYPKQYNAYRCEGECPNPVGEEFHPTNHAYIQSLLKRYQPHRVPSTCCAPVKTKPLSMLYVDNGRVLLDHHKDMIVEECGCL
Method: Antibodies (mAbs) that selectively recognized wild type human Nodal (E49E50) were further screened in order to identify mAbs that bound full length Nodal. Surface plasmon resonance (SPR) biosensor direct binding assay was used. Recombinant human Nodal protein (rhNodal, E. coli derived His238 Leu347, with an N-terminal Met Accession # Q96S42, cat. num 3218ND, R&D System) was immobilized on a CM5 sensor chip.
SPR analyses were performed on a Biacore 3000 instrument from GE Healthcare, using CM5 sensor chips and certified HBS buffer (20 mM HEPES, 0.15 M NaCl, pH 7.4, P20, 0.005%). Protein immobilization was carried out following the canonical amine coupling chemistry using the surface immobilization wizard procedure, operating at 5 μL/min. Channels were activated with EDC/NHS for 7 min; for the binding assays of purified mAbs to Nodal protein, rhNodal, opportunely diluted in the pre-selected sodium acetate buffer pH 4.5, was coupled until a 4000 RU level was achieved. Residual reactive groups on the sensor chip surface were deactivated by addition of 1.0 M ethanolamine hydrochloride, pH 8.5. Antibody binding was tested at 20 μL/min injecting solutions of 3D1 (60 μL) in HBS-EP at increasing concentrations (6-100 nM). A 10 mM NaOH solution was used to regenerate the chip surface.
After the single-dose screening, dose-dependent binding analyses were carried out with the two antibodies, 3D1 and 5F10, able to bind the full-length protein. Binding of 3D1 was carried out at concentrations ranging between 6 and 100 nM. For 5F10 higher concentrations were required (100, 250, 500 and 750 nM). Dissociations were monitored for at least 500 s. To carry out the mapping of the 3D1 epitope, the whole antibody was immobilized at 5 μg/mL in 10 mM NaAc buffer pH 5 at a flow rate of 5 μL/min by standard amine coupling chemistry on a CM5 sensor chip. The immobilization level reached with the mAb was about 5350 RU. On another channel of the same sensor chip, the 3D1 Fab′ was immobilized at 10 μg/mL in 10 mM NaAc buffer pH 4.5 at a flow rate of 5 μL/min, following the standard amine coupling chemistry. The amount of immobilized Fab′ was about 2570 RU. Residual reactive groups were deactivated by 1M ethanolamine hydrochloride, pH 8.5. The blank channel was prepared as already described. Real-time binding analyses were performed at a flow rate of 20 μL/min, using HBS-EP buffer, injecting a constant sample volume of 60 μL. Peptides opportunely diluted in HBS-EP buffer were injected at the following concentrations: 0.5, 1, 2.5, 5, 10, and 20 μM. Dissociations were monitored for at least 500 s; the regeneration solution was 5 mM NaOH.
For each analysis, experimental sensorgrams were aligned, subtracted of blank signals and overlapped. All mathematical manipulations and fitting were performed using the BiaEvaluation software, vers. 4.1 from GE Healthcare. All experimental data gave optimal fittings when processed assuming a 1:1 Langmuir binding interaction.
SPR analyses were performed at 25° C. using HBS as running buffer. Protein immobilization was carried out following the canonical amine coupling chemistry using the surface immobilization wizard procedure, operating at 5 μL/min. Channels were activated with EDC/NHS [N-(3-dimethylaminopropyl)-N′-ethylcarbodiimide hydrochloride(EDC)/[…](NHS) for 7 min; for the binding assays, rhNodal, appropriately diluted in the pre-selected sodium acetate buffer pH 4.5, was coupled until a 4000 RU level was achieved. Residual reactive groups on the sensor chip surface were deactivated by addition of 1.0 M ethanolamine hydrochloride, pH 8.5. Antibody binding was tested at 20 μL/min injecting solutions of 3D1 (60 μL) in HBS at increasing concentrations (6.0 nM-100 nM). A 10 mM NaOH solution was used to regenerate the chip surface. […]

[1] = system: A375SM human metastatic melanoma cells; assay: A375SM orthotopic xenograft in Nude mice; format: in vivo
Method: as §1
Four micron thick, formalin fixed, paraffin embedded tissue sections were prepared and immunohistochemistry was carried out on a Dako Plus autostainer (DAKO, Inc, Carpenteria, Calif.). Following antigen retrieval and blocking steps, sections were incubated in primary antibody for 60 mins, followed by appropriate biotinylated secondary antibody (Biocare Medical, Conrad, Calif.), and then streptavidin-horseradish peroxidase (Thermo Scientific Lab Vision). Color was developed with 3,3′-diaminobenzidine substrate (Thermo Scientific Lab Vision) and sections were counterstained with hematoxylin (Biocare Medical, LLC). As a negative control, adjacent serial sections were incubated with species appropriate irrelevant IgG (Jackson ImmunoResearch Labs) at the same concentration as primary antibodies. Similar to the lung tumor burden evaluation described above, mean percentage of positive staining±SEM was determined by 2 different observers, each calculating the ratio of positive cells/total number of cells×100 for 4 separate high power fields (63× objective) from at least 2 different mice per group.

B1: 3D1: mouse monoclonal anti-Nodal antibody raised against hNodal(44-67); light chain SEQ ID NO:1, heavy chains SEQ ID NO:2 and 3 (protein)
light: DIKMTQSPASLSASVGETVTITCRASGNIHNYLAWYQQKQGKSPQLLVYNAKTLADGVPSRFSGSGSGTQYSLKINSLQPEDFGSYYCQHFWSTPHVRCWDQAGTETEAW
heavy 1: VKLVESGGGLVKPGGSLKLSCAASGFTFSSYAMSWVRQTPEKRLEWVASISSGGCTYYPDSVKGRFTISRDNARNILYLQMSSLRSEDTAMYYCARGSMITADGNSLLLCYGLLGSRNLXHR
heavy 2: VKLVESGGGLVQPGGSMKLSCVASGFTFRNYWMSWVRQSPEKGLEWVAEIRLKSDNYAARYAESVKGKFTISRDDSKSRLYLQMNSLRAEDTGIYYCTGIRRFAYWGQGTL
modifications: not fully specified; (120)..(120) Xaa can be any naturally occurring amino acid
mean percentage (±SEM) of cells with strong positive nuclear P-Smad2 staining (C8161 cells; IHC of tumor sections, N=4): 51.3%±3.3% | tumor volumes (C8161 cells; direct intratumoral injection, days 8 to 14, vs IgG control, listed as 3D1 mAb): significantly smaller; also recorded: Reduced tumor volumes | average kd (rhNodal): 0.000655 s⁻¹ | Kd (rhNodal; Average over concentrations): 1.42 nM | ka (rhNodal; Average over concentrations): 695000 M⁻¹ s⁻¹ | kd (rhNodal; Average over concentrations): 0.000655 s⁻¹ | Kd (rhNodal; Example 1, hNodal immobilized on CM5 chip, antibody injected): ~1.3 nM | Kd (rhNodal; Examples 2 and 4, running text, averaged over dose-dependent runs): 1.42 nM and 1.4 nM | Kd (rhNodal; analyte injected at 6 nM): 0.491 nM | ka (rhNodal; analyte injected at 6 nM): 1.28e+06 M⁻¹ s⁻¹ | kd (rhNodal; analyte injected at 6 nM): 0.000629 s⁻¹ | Kd (rhNodal; analyte injected at 12 nM): 0.698 nM | ka (rhNodal; analyte injected at 12 nM): 979000 M⁻¹ s⁻¹ | kd (rhNodal; analyte injected at 12 nM): 0.000683 s⁻¹ | Kd (rhNodal; analyte injected at 25 nM): 0.968 nM | ka (rhNodal; analyte injected at 25 nM): 642000 M⁻¹ s⁻¹ | kd (rhNodal; analyte injected at 25 nM): 0.000622 s⁻¹ | Kd (rhNodal; analyte injected at 50 nM): 1.93 nM | ka (rhNodal; analyte injected at 50 nM): 361000 M⁻¹ s⁻¹ | kd (rhNodal; analyte injected at 50 nM): 0.000697 s⁻¹ | Kd (rhNodal; analyte injected at 100 nM): 3.03 nM | ka (rhNodal; analyte injected at 100 nM): 212000 M⁻¹ s⁻¹ | kd (rhNodal; analyte injected at 100 nM): 0.000644 s⁻¹ | ability to bind the full-length rhNodal protein (rhNodal; single-dose SPR screening, mAbs at 100 nM): able to bind the full-length rhNodal protein | mean percentage (±SEM) of nuclear P-Smad2 ([1]; IHC, N=4): 28.1%±2.6% | tumor volumes ([1]; after 8 days, vs IgG control, listed as 3D1 mAb): significantly reduced; also recorded: significantly smaller
